Article doi:10.1101/2025.06.12.659315, “Structural Basis for Cas9-Directed Spacer Acquisition in Type II-A CRISPR-Cas Systems” (bioRxiv, 2025)

B1: Enterococcus faecalis Cas2 (natural protein, UniProt A0A3N3FLR9 1-109, looked up)
chain: MSYRYMRLLLMFDMPTDTASDRKAYRKFRKFLINEGFIMHQFSVYSKILLNDTANKAMLARLKQNNPQRGLITLLNVTEKQFSRMIYLHGEQDNRVANSDERIVFLGEE
notes: Cas2 of the Enterococcus faecalis type II-A CRISPR-Cas system, full-length gene amplified from E. faecalis genomic DNA; Cas2 was purified together with Cas1 (Cas1:Cas2 mixed 2:1) before use; also called EfaCas2; Cas2 dimer; source: E. coli BL21 Star (DE3), purified (Ni-NTA, SUMO protease cleavage, Superdex 200 SEC with Cas1)
B2: Enterococcus faecalis Csn2 (natural protein, UniProt C7UDU4 1-219, looked up)
chain: MRVNFSLLEEPIEIEKATFLTIKDVQSFAHLVKLIYQYDGENELKLFDAQQKGLKPTELFVVTDILGYDVNSAATLKLIYGDLEAQLNDKPEVKSMIEKLTGTISQLIGYELLEHEMDLEEDGIIVQELFKALGIKIETTSDTIFEKVMEITQVHRYLSKKKLLIFINACTYLTEDEVQQVVEYISLNNVDVLFLEQRVVQNRFQYILDENFYLSYEKA
notes: Csn2 of the Enterococcus faecalis type II-A CRISPR-Cas system, full-length gene amplified from E. faecalis genomic DNA; Homotetramer ring with a central channel for dsDNA; also called EfaCsn2; Csn2 tetramer; source: E. coli BL21 Star (DE3), purified (Ni-NTA, TEV cleavage, Superdex 200 SEC); not shown: His6, N-terminal, cleaved; MBP, N-terminal, cleaved
B3: Enterococcus faecalis Cas1 (enzyme, UniProt A0A3N3GDE4 1-288, looked up)
chain: MGWRTVVVNKHSKLSYKNNHLVFKAIDHQELIHLSEIDVLLLETTDISLTTMLLKRLIDEKILVLFCDDKRLPIGKILPFYGRHDSSLQLTRQLAWTEERKGQVWTAIIAQKITNQSLHLAQRDYGQKAAALLAMRAELRLFDPANREGHAARSYFNTLFGNDFTREQENDINAGLNYGYTLLLSIFARELVQTGCFTQLGLKHANQFNDFNLASDLMEPFRPLVDQIIYENRKEAFPIMKRKLFALFMNTYMYKKKQMFLTNIATDYTKHVVKVLNQEEEGVPEFGI
notes: Cas1 of the Enterococcus faecalis type II-A CRISPR-Cas system, full-length gene amplified from E. faecalis genomic DNA; Cas1 was purified together with Cas2 (mixed 2:1) before use; also called EfaCas1; Cas1 dimer; source: E. coli BL21 Star (DE3), purified (Ni-NTA, SUMO protease cleavage, Superdex 200 SEC with Cas2)

Tests used:
[1] = biological target: the molecule itself; assay: cryo-EM structure; apo-state Cas9/RNA-Csn2-Cas1-Cas2 supercomplex, assembled from purified proteins and purified by SEC in 20 mM HEPES pH 7.5, 250 mM NaCl; 3.9 Å
[2] = biological target: the molecule itself; assay: cryo-EM structure; preassembled Cas9/RNA-Csn2-Cas1-Cas2 supercomplex incubated with a 59-bp PAM-containing dsDNA at 4 °C for 30 min; Cas9-containing prespacer catching complex, State I 2.96 Å and State II 3.01 Å
[3] = biological target: T1, Enterococcus faecalis Cas1-Cas2 integrase complex (Cas1_(4)-Cas2_(2) hexamer) (Enterococcus faecalis, UniProt A0A3N3GDE4 1-288; A0A3N3FLR9 1-109); assay: SEC; analytical SEC, Superdex 200 Increase 10/300 GL, 20 mM HEPES pH 7.5, 250 mM NaCl; Cas9/RNA, Csn2 and Cas1-Cas2 mixed; fractions analysed by SDS-PAGE (Coomassie); details: both partners purified
T1 construct: Cas1 of the Enterococcus faecalis type II-A CRISPR-Cas system, full length; as the chain of m3; Cas2 of the Enterococcus faecalis type II-A CRISPR-Cas system, full length; as the chain of m4; Complex formed beforehand; used as one partner in the gel filtration and DNA cleavage assays; also called Cas1-Cas2 hexamer; Cas1-Cas2 complex; source: E. coli BL21 Star (DE3); tag-cleaved Cas1 and Cas2 …
T1 sequence (looked up) 1: B3 chain
T1 sequence (looked up) 2: B1 chain

Binder | stoichiometry N [1] | stoichiometry N [2] | binding result [3]
B1 | 2 |  | 
B2 |  | 4 | binds
B3 |  | 2 | 
